The source of these data is patent US7981863B2, “Treatment of Parkinson's disease with PDGF” (Neuronova AB, priority 2001, dated 2011).

The subject of this test is 6-OHDA Lesioned Rats. Kind of test: i.c.v. infusion in 6-OHDA lesioned rats, BrdU / NeuN labelling. Type of test: in vivo, rat. How it is done: Animal handling and surgical procedures were carried out according to the ethical and regulatory permits set forth by Jordbruksverket and Lund University. Adult female Sprague-Dawley rats (B&K Universal AB) rats weighing 220-250 g, were housed in pairs with a 12 h light-dark cycle with free access to food and water. To lesion the substantia nigra, rats were fixed into a stereotaxic frame and 6-OHDA ([…] in 0.02% ascorbate saline, Sigma) was injected at a rate of 1 μl/min in 2 deposits of 2 and 2.5 μl into the right ascending mesostriatal forebrain bundle at the following coordinates: 4.4 mm caudal to bregma, 1.2 mm lateral to midline, 7.8 mm below dura; 4.0 mm caudal, 0.8 mm lateral, 8.0 mm below dura, respectively (Paxinos and Watson, 1998). Three weeks after 6-OHDA injections, the completeness of the lesion was assessed with the amphetamine-induced rotation test. D-methylamphetamine (2.5 mg, i.p.) was injected 5 min prior to placing the rat in an automated rotormeter bowl that measured the number of rotations over 90 min.
Before implantation, an Alzet Model 2002 osmotic minipump (200 μl; flow rate: 0.5 μl/h, 12 μl/day) was prefilled with 200 μl of compound solution (see below) and placed in a NaCl (0.9%) solution warmed in water bath (37° C.) 36 hrs before implantation. Rats were anesthetized with halothane in a mixture of nitrous oxide/oxygen (70:30) and maintained with 2-3% halothane. For implantation, rats were placed in a stereotaxic frame and the cannula of the Alzet Brain Infusion kit II was placed into the right lateral ventricle (coordinates: AP=−0.3 mm posterior bregma, L=1.5 mm lateral to satura sagittalis, 4.5 mm the dura; Paxinos and Watson, 1998), and secured to the skull with screws and dental cement. The minipump was then placed subcutaneously in the mid-scapular region. The scalp was treated with lidocaine gel before suturing. Twelve days after insertion, the rats were briefly anaesthetized with halothane in order to remove the pump. Removed pumps had the remaining solution volume and weight recorded.
The effects of infused PDGF-BB and BDNF following 6-OHDA lesions were investigated at 2 different time points: at 12 days or 5 weeks after minipump insertion. Rats receiving human PDGF-BB (order # 220-BB-050; 50 μg, R&D Systems) each had 36 ng/d of PDGF dissolved in 0.1 M PBS (3 μg/ml). Rats receiving human recombinant BDNF (order # 248-BD-025; 25 μg, R&D Systems) each had 12 ng/d of BDNF dissolved in 0.1 M PBS (1 μg/ml). BrdU was co-administered with the compound solution in the minipumps by dissolving it into the 0.1 M PBS medium. Control rats received only BrdU/PBS infusions.
Brain tissue was obtained by anesthetizing the rat and transcardially perfusing with 0.9% saline followed by 4% paraformaldehyde (PFA). Brains were stored PFA for 2 hours, then transferred to 20% sucrose PBS and sectioned coronally on a sledge microtome at 30 μm thickness. Free-floating sections were stored in Walter's antifreeze solution at 4° C. until staining.
Following blocking, incubation of monoclonal rat anti-BrdU antibody (Harlan Sera Lab, UK) in 2% blocking solution occurred at a dilution of 1:100 at 4° C. for 36 hrs. The sections were then incubated with biotin-horse-[…] antibody (1:200) (Vector, CA) in 2% blocking solution for 2 hr and visualized with DAB-NiCl Vectastain Elite kit. The procedure for doubling labeling of BrdU with NeuN or TH was similar, except that a monoclonal rat anti-BrdU antibody (1:100; Sigma, Sweden) was incubated either with a monoclonal mouse anti-NeuN antibody (1:100; Chemicon, USA) or with a monoclonal anti-TH antibody (1:1000; Pelfreeze) in the appropriate 2% blocking solution in the dark for 36 to 48 hrs. For immunofluorescent visualization, sections were incubation in secondary antibodies: Cy3-conjugated donkey anti-rat (1:200; Jackson ImmunoResearch, PA) for BrdU; a biotinylated horse anti-mouse antibody (1:200; BA2001, Vector, CA) for NeuN; and a FITC-conjugated goat anti-rat (1:200;) for TH. […]

B1: PDGF-BB: human recombinant PDGF-BB, platelet derived growth factor B-chain homodimer (protein)
chain: SLGSLTIAEPAMIAECKTRTEVFEISRRLIDRTNANFLVWPPCVEVQRCSGCCNNRNVQCRPTQVQLRPVQVRKIEIVRKKPIFKKATVTLEDHLACKCETVAAARPVT
In the case of B1, the “absolute number of BrdU/NeuN double labelled cells in the striatum” value (5 weeks, FIG. 15) is on record as “significantly more neurons”. In addition, under “12 days after infusion, compared to PBS infusion, PDGF 36 ng/d, BDNF 12 ng/d”, the “numbers of BrdU labelled cells in the denervated striatum” value was “significantly elevated”. Further, the “numbers of BrdU labelled cells in the lesioned substantia nigra” value (12 days after infusion, compared to PBS treatment) is “significantly elevated”. Also, where the note is “Week 5, no statistically significant differences”, the “BrdU cells in the striatum co-labelled with NeuN (proportion of newly generated neurons)” value came to 20.9%.
